# System: EZH2 (recombinant PRC2 complex)
# Assay: pull-down (streptavidin) + western
# Conditions: Folding buffer 100 mM KCl, 50 mM Tris-HCl, 5 mM MgCl2, 0.1 mM CaCl2, 0.5 mM ZnCl2 with BSA and RNase inhibitor (pH not given); PNA 30 min 37 C (legend: 1 h …)
substance,measurement,value
HOTAIR full-length lncRNA,binding signal (% reduction of binding),80
